In patent US20240076330A1:

Columns and labels:
[1] = target: IL-6 receptor (IL6R) (human) (UniProt P08887); test: cell-based or functional assay
IFNGR1 (human) = IFNGR1 (human) (UniProt P15260); test: cell-based or functional assay
Chain of UniProt P15260 (P15260 18-489): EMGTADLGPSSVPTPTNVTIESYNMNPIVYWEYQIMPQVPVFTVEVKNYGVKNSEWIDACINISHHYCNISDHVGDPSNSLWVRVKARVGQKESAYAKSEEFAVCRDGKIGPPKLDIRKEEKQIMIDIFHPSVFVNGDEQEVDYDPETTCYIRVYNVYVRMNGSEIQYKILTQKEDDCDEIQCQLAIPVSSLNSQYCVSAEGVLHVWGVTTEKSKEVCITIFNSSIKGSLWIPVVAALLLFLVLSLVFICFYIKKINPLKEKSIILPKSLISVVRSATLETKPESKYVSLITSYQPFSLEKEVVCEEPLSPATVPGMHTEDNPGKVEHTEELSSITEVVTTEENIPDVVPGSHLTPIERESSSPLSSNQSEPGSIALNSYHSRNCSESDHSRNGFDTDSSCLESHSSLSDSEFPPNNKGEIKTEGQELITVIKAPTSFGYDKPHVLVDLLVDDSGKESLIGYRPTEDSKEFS

Chain of UniProt P08887 (P08887 20-468): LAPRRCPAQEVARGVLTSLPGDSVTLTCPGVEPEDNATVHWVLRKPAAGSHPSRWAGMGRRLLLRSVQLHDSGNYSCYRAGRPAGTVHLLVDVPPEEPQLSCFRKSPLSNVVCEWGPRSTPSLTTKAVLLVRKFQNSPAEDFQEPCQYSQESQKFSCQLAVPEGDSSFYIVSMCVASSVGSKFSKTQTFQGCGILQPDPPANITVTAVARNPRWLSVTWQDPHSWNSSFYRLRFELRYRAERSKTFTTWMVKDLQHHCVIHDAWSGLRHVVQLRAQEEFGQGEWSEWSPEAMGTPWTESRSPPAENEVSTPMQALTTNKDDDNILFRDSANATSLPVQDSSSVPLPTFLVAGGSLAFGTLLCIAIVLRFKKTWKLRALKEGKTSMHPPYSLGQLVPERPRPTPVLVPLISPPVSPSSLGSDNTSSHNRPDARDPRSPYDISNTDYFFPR

| pSTAT1 levels after IL-6 in THP1-Cas9 cells with gRNAs targeting IL6R (fold reduction) [1] | pSTAT3 levels after IL-6 in THP1-Cas9 cells with gRNAs targeting IL6R (fold reduction) [1] | pSTAT1 levels after IFNγ in THP1-Cas9 cells with gRNAs targeting IFNGR1 (fold decrease) (IFNGR1 (human)) | percent of cells with increased pSTAT1 after IFNγ, clusters with gRNAs targeting IFNGR1 (IFNGR1 (human)) [%] | Substance |
| --- | --- | --- | --- | --- |
| 2 | 2 |  |  | IL-6 (from UniProt P05231 30-212) (ligand) |
|  |  | 15 | 25 | IFNγ (from UniProt P01579 24-166) (ligand) |
